Data from patent publication US20220073608A1 (JIANGSU HUAIYU PHARMACEUTICAL, published 2022).
Numbering of substitutions follows the chain as printed.

T1: hSEMA4D ECD-His (His-tagged human SEMA4D protein extracellular domain, Met22-Arg734) (human, UniProt Q92854 22-734)
T1 construct: Expressed in CHO-S cells, purified on Ni column; also called protein immunogen; immunogen A; not shown: His tag of the pCP vector
T1 sequence: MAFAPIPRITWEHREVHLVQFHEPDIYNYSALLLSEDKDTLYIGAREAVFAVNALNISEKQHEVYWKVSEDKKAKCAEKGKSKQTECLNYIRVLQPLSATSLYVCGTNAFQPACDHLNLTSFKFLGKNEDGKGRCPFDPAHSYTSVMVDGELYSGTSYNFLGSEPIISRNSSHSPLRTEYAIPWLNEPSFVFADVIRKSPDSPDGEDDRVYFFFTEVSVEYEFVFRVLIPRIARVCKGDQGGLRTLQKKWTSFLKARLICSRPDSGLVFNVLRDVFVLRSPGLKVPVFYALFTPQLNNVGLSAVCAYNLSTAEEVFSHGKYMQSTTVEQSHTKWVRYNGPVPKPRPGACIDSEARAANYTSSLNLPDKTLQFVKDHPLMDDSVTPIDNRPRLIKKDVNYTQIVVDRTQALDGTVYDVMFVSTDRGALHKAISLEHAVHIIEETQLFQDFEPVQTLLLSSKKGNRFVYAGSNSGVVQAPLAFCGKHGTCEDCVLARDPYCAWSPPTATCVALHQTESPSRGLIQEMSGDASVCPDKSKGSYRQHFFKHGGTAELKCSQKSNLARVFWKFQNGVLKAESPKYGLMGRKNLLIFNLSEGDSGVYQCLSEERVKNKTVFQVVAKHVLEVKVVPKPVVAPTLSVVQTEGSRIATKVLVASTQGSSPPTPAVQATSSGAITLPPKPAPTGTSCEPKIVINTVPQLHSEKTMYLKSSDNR

B1: 42B7G2 (antibody, V domains shown)
VH: QVQLQQSGAELARPGASVKLSCKASGYTFTDYGISWVKQRTGQGLEWIGEIYLRNDNSYYNEKFKGKATLTADKSSNTAYMELRSLTSEDSAVYFCARWGDHGNNYEDAMDYWGQGTSVTVSS
VL: DIVLTQSPASLAMSLGKRATISCRASESVSIIGSNLIHWYQQKPGQPPKLLIYHASNLETGVPARFSGSGSRTDFTLTIDPVEEDDVAIYYCLQSRKVPYTFGGGTKLEIK
notes: Mouse monoclonal antibody purified from hybridoma supernatant on protein A
B2: 37C4F7 (antibody, V domains shown)
VH: EFQLQQSGPEVVKPGASVKISCKASGYSFTDYNMNWMKQSKGKSLEWIGVINPNYGTTTYNQNFKGKATLTVDQSSSTAYMQLNSLTSEDSAVYYCARDMYYVYAYYTMDYWGQGTSVTVSS
VL: DVVMTQTPLSLPVSLGDQASISCRSSQSLVHSNGHTYLHWYLQRPGQSPTLLIYKVSNRFSGVPDRFSGSGSGTDFTLKISRVEAEDLGVYFCSQGTHVPWTFGGGTKLEIK
notes: as for B1
B3: 38H2E3 (antibody, V domains shown)
VH: B2 VH with N52S, N54D, G66D, R98K, Q114H
VL: B2 VL with F67V, W101R
notes: as for B1
B4: 32C8F10 (antibody, V domains shown)
VH: EVQLQQSGAELVRPGASVKLSCTASGFNIKDEYIHWVKQRPEQGLEWIGWIDPANGHTEYASRFQAKATITADTSSNTAYLQLSSLTSEDTAVYYCTTGDYDGFAYWGQGTLVTVST
VL: QIVLTQSPAIMSASPGEKVTISCSARSSVSYMYWYQQKPGSSPKPWIYRTSNLASGVPARFSGSGSGTSYSLTISSMEAEDAATYYCQHYHTYPYTFGGGTKLEIK
notes: as for B1
B5: 31C11G2 (antibody, V domains shown)
VH: B4 VH with A105V
VL: B4 VL with S22F
notes: as for B1
B6: 31G10C5 (antibody, V domains shown)
VH: B4 VH with E32D, T58I, R63N, A105T
VL: B4 VL
notes: as for B1
B7: 37F11F9 (antibody, V domains shown)
VH: EVQLQQSGPVLVKPGASVKMSCKASGYTFTDYYMNWVKQSHGKSLEWIGLINPYSGGSTFNQKFKAKATLTVDKSSSSAYMDLNSLTSEDSAVYYCARVGDGYYGVTHGMDYWGQGTSVTVSS
VL: DIVMTPSQKFMSTTVGDRVSITCKASQNVGTAVAWYQQKPGQSPTILIYSASNRYTGVPDRFTGSGSGTDFTLTISNMKSEDLADYFCQQYYIYPFTFAAGTKLELK
notes: as for B1

Target: T1, hSEMA4D ECD-His (His-tagged human …)
Experiment: ELISA, coated hSEMA4D ECD-His; Ab 0.000085 nM
Method: First, hSEMA4D ECD-His was diluted with PBS to a final concentration of 1.0 μg/mL, and then was added to a 96-well ELISA plate, 100 μL per well, sealed with plastic film and incubated overnight at 4° C. On the next day, the plate was washed with a plate washing solution, that is, PBS buffer containing 0.05% (v/v) Tween20, for 4 times, and added with blocking solution, that is, PBS buffer containing 0.05% (v/v) Tween20 and 2% (w/w) BSA, blocked at 37° C. for 1 hour. The blocking solution was poured out and the plate was washed 4 times with the plate washing solution. 100 μL of the purified leading antibodies obtained in Examples 1 and 2 was added to each well. After incubation at 37° C. for 1 hour, the plate was washed 4 times with a plate washing solution. 100 μL of horseradish peroxidase (HRP) labeled secondary antibody (purchased from Sigma) was added at a dilution of 1:10000 to each well, and the plate was incubated at 37° C. for 1 hour, and washed 4 times with a plate washing solution. 100 μL TMB substrate was added to each well, and the plate was incubated at room temperature for 5 minutes, and added with 100 μL stop solution (1.0N HCl) to each well. A microplate reader (SpectraMax M5e, purchased from Molecular Device) was used to read the A450 nm value. […] Wherein, the data in the table was the OD450 nm value.

OD450 nm	Binder
0.0753	B1
0.0661	B2
0.0635	B3
0.0699	B4
0.0753	B5
0.0694	B6
0.0658	B7

Target: T2, monkey SEMA4D, full length, on CHO-K1 cells (CHO-K1 cSEMA4D) (monkey)
T2 construct: whole, on cells; also called monkey SEMA4D recombinant cells
Experiment: FACS, CHO-K1 cSEMA4D cells; Ab 13.3 nM
Method: (§1) After the cells were counted, they were diluted with PBS to 2×10⁶ cells per milliliter. After washing, 100 μL of diluted and purified leading antibodies was added to each well and the plate was incubated for 1 hour on ice. […] Cells were washed 2 times by centrifugation with FACS buffer. The cells were suspended with 200 μL of FACS buffer, FACS (FACS Verse, purchased from BD) was used to detect and analyze the results.

MFI	Binder
2590	B1
2790	B2
2800	B3
5590	B4
4390	B5
4580	B6
2480	B7

Target: T2, monkey SEMA4D, full length, on CHO-K1 …
Experiment: FACS, CHO-K1 cSEMA4D cells; Ab 0.0213 nM
Method: as §1

MFI	Binder
216	B1
79.4	B2
69.1	B3
291	B4
422	B5
414	B6
103	B7
